According to patent US20240318156A1:

B1: HexA (wild-type; α/β heterodimer) (protein)
chain 1: TLEKNVLVVSVVTPGCNQLPTLESVENYTLTINDDQCLLLSETVWGALRGLETFSQLVWKSAEGTFFINKTEIEDFPRFPHRGLLLDTSRHYLPLSSILDTLDVMAYNKLNVFHWHLVDDPSFPYESFTFPELMRKGSYNPVTHIYTAQDVKEVIEYARLRGIRVLAEFDTPGHTLSWGPGIPGLLTPCYSGSEPSGTFGPVNPSLNNTYEFMSTFFLEVSSVFPDFYLHLGGDEVDFTCWKSNPEIQDFMRKKGFGEDFKQLESFYIQTLLDIVSSYGKGYVVWQEVFDNKVKIQPDTIIQVWREDIPVNYMKELELVTKAGFRALLSAPWYLNRISYGPDWKDFYIVEPLAFEGTPEQKALVIGGEACMWGEYVDNTNLVPRLWPRAGAVAERLWSNKLTSDLTFAYERLSHFRCELLRRGVQAQPLNVGFCEQEFEQT
chain 2: ARAPSVSAKPGPALWPLPLSVKMTPNLLHLAPENFYISHSPNSTAGPSCTLLEEAFRYHGYIFGFYKWHHEPAEFQAKTQVQQLLVSITLQSECDAFPNISSDESYTLLVKEPVAVLKANRVWGALRGLETFSQLVYQDSYGTFTINESTIIDSPRFSHRGILIDTSRHYLPVKIILKTLDAMAFNKFNVLHWHIVDDQSFPYQSITFPELSNKGSYSLSHVYTPNDVRMVIEYARLRGIRVLPEFDTPGHTLSWGKGQKDLLTPCYSRQNKLDSFGPINPTLNTTYSFLTTFFKEISEVFPDQFIHLGGDEVEFKCWESNPKIQDFMRQKGFGTDFKKLESFYIQKVLDIIATINKGSIVWQEVFDDKAKLAPGTIVEVWKDSAYPEELSRVTASGFPVILSAPWYLDLISYGQDWRKYYKVEPLDFGGTQKQKQLFIGGEACLWGEYVDATNLTPRLWPRASAVGERLWSSKDVRDMDDAYDRLTRHRCRMVERGIAAQPLYAGYCNHENM
B2: Mod2B (Modified β/β homodimer) (protein)
chain: TQVQQLLVSITLQSECDAFPNISSDESYTLLVKEPVAVLKANRVWGALRGLETFSQLVYQDSYGTFTINESTIIDSPRFSHRGILIDTSRHYLPVKIILKTLDAMAFNKFNVLHWHIVDDQSFPYQSITFPELSNKGSYSLSHVYTPNDVRMVIEYARLRGIRVLPEFDTPGHTLSWGKGQKDLLTPCYSGSEPSGTFGPINPTLNTTYSFLTTFFKEISEVFPDQFIHLGGDEVEFKCWESNPKIQDFMRQKGFGTDFKKLESFYIQKVLDIIATINKGSIVWQEVFDDKAKLAPGTIVEVWKDSAYPEELSRVTASGFPVILSAPWYLNRISYGQDWRKYYKVEPLDFGGTQKQKQLFIGGEACLWGEYVDATNLTPRLWPRASAVGERLWSSKDVRDMDDAYDRLTRHRCRMVERGIAAQPLYAGYCNHENM
B3: HexD3 (Modified α/α homodimer) (protein)
chain: ARAPSVSAKPGPALWPLPLSVKMTPNLLHLAPENFYISHSPNSTAGPSCTLLEEAFRRYHGYIFGFYKWHHEPAEFQAKTQVQQLLVSITLQSECDAFPNISSDESYTLLVKEPVAVLKANRVWGALRGLETFSQLVYQDSYGTFTINESTIIDSPRFPHRGLLLDTSRHYLPLKSILDTLDVMAYNKLNVFHWHLVDDQSFPYESFTFPELMRKGSYSLSHIYTAQDVKEVIEYARLRGIRVLAEFDTPGHTLSWGPGIPGLLTPCYSGSEPSGTFGPVNPSLNNTYEFMSTFFLEVSSVFPDFYLHLGGDEVDFTCWKSNPEIQDFMRKKGFGEDFKQLESFYIQTLLDIVSSYGKGYVVWQEVFDNKVKIQPDTIIQVWREDIPVNYMKELELVTKAGFRALLSAPWYLNRISYGQDWRKFYKVEPLAFEGTPEQKALVIGGEACMWGEYVDATNLVPRLWPRAGAVAERLWSNKLTRDMDDAYDRLSHFRCELVRRGVAAQPLYAGYCNQEFEQT
B4: HexM (Modified α/α homodimer) (protein)
chain: TLEKNVLVVSVVTPGCNQLPTLESVENYTLTINDDQCLLLSETVWGALRGLETFSQLVWKSAEGTFFINKTEIEDFPRFPHRGLLLDTSRHYLPLKSILDTLDVMAYNKLNVFHWHLVDDQSFPYESFTFPELMRKGSYSLSHIYTAQDVKEVIEYARLRGIRVLAEFDTPGHTLSWGPGIPGLLTPCYSGSEPSGTFGPVNPSLNNTYEFMSTFFLEVSSVFPDFYLHLGGDEVDFTCWKSNPEIQDFMRKKGFGEDFKQLESFYIQTLLDIVSSYGKGYVVWQEVFDNKVKIQPDTIIQVWREDIPVNYMKELELVTKAGFRALLSAPWYLNRISYGQDWRKFYKVEPLAFEGTPEQKALVIGGEACMWGEYVDATNLVPRLWPRAGAVAERLWSNKLTRDMDDAYDRLSHFRCELVRRGVAAQPLYAGYCNQEFEQT

Assays:
[1] = molecular target: T1, Recombinant human GM2 activator protein (GM2AP) containing an N-terminal 6×-histidine tag, P17900
T1 chain: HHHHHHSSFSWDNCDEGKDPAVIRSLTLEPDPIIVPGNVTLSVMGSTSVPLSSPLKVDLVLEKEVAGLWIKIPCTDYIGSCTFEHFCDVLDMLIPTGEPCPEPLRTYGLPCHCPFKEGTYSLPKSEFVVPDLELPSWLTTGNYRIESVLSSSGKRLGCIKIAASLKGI

[2] = molecular target: cation independent mannose 6-phosphate receptor (CI-MPR) (human) (UniProt P11717); experiment: cell-based or functional assay
Chain of UniProt P11717 (P11717 41-2491): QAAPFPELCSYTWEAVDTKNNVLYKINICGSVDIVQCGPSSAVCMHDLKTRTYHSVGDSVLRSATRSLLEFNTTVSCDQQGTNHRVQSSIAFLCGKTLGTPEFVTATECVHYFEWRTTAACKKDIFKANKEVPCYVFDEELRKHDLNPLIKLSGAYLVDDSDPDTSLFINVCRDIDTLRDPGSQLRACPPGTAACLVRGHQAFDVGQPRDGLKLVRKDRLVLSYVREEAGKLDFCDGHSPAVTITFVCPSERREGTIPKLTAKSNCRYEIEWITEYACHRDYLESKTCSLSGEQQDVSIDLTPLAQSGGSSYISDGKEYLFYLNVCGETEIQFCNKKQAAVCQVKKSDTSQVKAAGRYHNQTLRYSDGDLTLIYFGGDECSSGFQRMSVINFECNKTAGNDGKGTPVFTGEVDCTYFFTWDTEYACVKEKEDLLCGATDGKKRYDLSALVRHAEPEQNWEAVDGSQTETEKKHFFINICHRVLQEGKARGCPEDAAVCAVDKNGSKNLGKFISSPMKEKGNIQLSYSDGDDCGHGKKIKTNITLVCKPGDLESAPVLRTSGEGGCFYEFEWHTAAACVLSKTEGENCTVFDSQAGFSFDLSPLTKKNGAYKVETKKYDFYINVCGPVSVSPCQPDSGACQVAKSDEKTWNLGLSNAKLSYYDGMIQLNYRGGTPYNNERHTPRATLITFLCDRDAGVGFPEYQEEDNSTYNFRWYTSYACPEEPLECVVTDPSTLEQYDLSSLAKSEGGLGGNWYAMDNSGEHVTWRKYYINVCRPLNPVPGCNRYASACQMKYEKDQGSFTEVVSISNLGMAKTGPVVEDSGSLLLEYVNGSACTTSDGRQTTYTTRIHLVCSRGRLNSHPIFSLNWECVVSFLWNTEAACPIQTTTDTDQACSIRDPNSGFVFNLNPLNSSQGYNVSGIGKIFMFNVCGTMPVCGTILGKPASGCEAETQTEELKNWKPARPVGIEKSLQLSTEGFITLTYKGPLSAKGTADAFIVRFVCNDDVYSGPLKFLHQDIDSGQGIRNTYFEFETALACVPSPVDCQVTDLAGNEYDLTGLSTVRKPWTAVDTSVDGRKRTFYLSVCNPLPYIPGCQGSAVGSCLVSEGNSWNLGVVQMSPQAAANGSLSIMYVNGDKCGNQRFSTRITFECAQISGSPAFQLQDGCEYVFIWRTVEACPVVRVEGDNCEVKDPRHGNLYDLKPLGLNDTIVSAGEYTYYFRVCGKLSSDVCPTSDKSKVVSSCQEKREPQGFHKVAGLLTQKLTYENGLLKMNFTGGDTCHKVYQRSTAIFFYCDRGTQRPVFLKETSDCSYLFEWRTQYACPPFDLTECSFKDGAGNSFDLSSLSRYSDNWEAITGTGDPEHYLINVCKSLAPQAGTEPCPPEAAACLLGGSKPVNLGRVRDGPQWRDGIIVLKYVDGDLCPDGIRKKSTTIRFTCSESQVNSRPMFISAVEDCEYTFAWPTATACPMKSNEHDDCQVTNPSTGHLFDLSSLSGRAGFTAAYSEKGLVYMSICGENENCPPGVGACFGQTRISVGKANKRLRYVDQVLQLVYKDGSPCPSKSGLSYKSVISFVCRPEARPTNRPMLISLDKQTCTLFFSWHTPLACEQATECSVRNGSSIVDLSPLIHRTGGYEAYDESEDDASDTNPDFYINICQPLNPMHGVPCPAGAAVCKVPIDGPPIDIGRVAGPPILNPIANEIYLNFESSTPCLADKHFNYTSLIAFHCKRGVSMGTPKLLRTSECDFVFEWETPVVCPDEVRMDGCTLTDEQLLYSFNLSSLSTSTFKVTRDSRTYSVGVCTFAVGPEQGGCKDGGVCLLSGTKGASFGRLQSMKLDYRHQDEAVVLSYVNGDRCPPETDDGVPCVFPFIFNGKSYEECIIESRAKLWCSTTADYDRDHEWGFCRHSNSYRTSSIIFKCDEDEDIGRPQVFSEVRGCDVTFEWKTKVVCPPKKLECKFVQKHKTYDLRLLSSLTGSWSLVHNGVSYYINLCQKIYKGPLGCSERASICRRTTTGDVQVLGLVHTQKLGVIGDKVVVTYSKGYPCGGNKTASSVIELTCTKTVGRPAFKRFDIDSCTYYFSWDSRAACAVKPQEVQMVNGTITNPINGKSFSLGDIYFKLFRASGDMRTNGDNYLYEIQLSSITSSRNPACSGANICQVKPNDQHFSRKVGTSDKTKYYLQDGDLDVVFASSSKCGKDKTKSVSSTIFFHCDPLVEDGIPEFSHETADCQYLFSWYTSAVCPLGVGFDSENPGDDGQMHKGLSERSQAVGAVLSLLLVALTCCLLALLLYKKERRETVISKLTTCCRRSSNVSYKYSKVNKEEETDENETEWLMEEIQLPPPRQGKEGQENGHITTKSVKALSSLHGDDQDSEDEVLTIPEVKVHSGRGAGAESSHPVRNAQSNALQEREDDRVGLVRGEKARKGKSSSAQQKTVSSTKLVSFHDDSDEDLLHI

Row | Binder | Km (Kinetic data of FIG. 2, GM2AP-dependent GM2 degradation) [1] [µM] | Km GM2AP [1] [µM] | Km [GM2AP], µM (GM2AP-dependent GM2 hydrolysis, natural substrate assay) [1] [µM] | K uptake (nM) MUG activity [2] [nM] | GM2AP-dependent kinetics of GM2 hydrolysis [1]
1 | B1 | 14.5 | 14.5 | 14.5 | 3.3 | –
2 | B2 | 20.4 | – | 20.4 | – | GM2AP binding kinetics to the Hex homodimers was comparable to the wild type heterodimer
3 | B3 | 13.7 | 13.7 | 13.7 | 5.8 | –
4 | B4 | 19.6 | 19.6 | 19.6 | 130 | GM2AP binding kinetics to the Hex homodimers was comparable to the wild type heterodimer
